Assay results from PMC2908255.

Target: Erk2 (UniProt P63086)
Experiment: ITC

HePTP 15-339 (includes the KIM) (domain or fragment)
Kd: 549 nM | dH: -10.8 kcal/mol | stoichiometry N: 0.95
